T1: Trypsin inhibitor type 1-S from Glycine max (Glycine max, UniProt P01070 25-205)
T1 construct: Amine coupled to a CM5 chip
T1 sequence (looked up): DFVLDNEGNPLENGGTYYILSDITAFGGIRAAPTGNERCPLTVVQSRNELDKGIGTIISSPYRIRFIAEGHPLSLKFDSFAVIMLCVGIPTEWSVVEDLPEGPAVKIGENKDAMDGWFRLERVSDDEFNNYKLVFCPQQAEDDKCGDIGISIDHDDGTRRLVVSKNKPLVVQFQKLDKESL


Experiments:
[1] = molecular target: Human TSLP (form and source not stated) (human, UniProt Q969D9 29-159, limits assumed); assay: cell-based or functional assay
[2] = molecular target: T2, human TSLP with His tag (ACRO, TSP-H52Ha) (human, UniProt Q969D9 29-159); assay: SPR, His-TSLP captured on anti-His CM5, antibody analyte
T2 construct: Bought protein; also called human TSLP antigens; Human TSLP (Acro, #TSP-H52Ha); not shown: His tag

[3] = molecular target: T3, monkey TSLP antigen (R127A, R130S) Protein, His Tag (ACRO, Cat#: TSP-C52H4) (monkey, UniProt A0A7N9CAT7 29-159); assay: as above
T3 construct: Bought protein

[4] = molecular target: T1, Trypsin inhibitor type 1-S from Glycine …; assay: SPR, protein coupled to CM5
[5] = molecular target: T4, Lysozyme solution from chicken egg (chicken, UniProt P00698 19-147); assay: SPR, protein coupled to CM5
T4 construct: Amine coupled to a CM5 chip
T4 sequence (P00698 19-147 limits assumed): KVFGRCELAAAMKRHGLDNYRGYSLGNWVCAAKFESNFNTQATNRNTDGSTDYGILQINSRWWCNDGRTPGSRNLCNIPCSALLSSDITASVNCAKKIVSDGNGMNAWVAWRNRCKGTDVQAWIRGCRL

T3 sequence (A0A7N9CAT7 entry or part of it R127A R130S R127A R130S limits assumed, form in doubt): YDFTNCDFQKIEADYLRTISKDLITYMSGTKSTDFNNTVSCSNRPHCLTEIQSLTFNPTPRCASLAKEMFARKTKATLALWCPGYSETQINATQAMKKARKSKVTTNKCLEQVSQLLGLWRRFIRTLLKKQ

Binder | TARC in PBMC supernatant (ELISA) [1] | Kd [2] [nM] | koff [2] [s⁻¹] | kon [2] [M⁻¹ s⁻¹] | Kd [3] [nM] | koff [3] [s⁻¹] | kon [3] [M⁻¹ s⁻¹] | binding response (RU) [4] [RU] | binding response (RU) [5] [RU]
900792-huH2L2 (antibody, human IgG1, kappa, L234A L235A, V domains shown, Humanized) VH: QVQLVQSGAEVKKPGASVKVSCKASGYAFTNYLIEWVRQAPGQGLEWMGIINPESGDTYYAQKFQGRVTMTADKSTSTAYMELSSLRSEDSAVYFCAKESLTGSSYDYWGQGTTLTVSS VL: DIQMTQSPSSLSASVGDRVTITCRASENIYSNLVWYQQKPGKAPQLLVYGARNLQSGVPSRFSGSGSGTQFSLTISSLQPEDFATYYCQHFYETPLTFGTGTKLEIKR | ~10 times better than Tezepelumab | 0.172 | 0.000126 | 733000 | 5.06 | 0.0165 | 3.27e+06 | 6.8 | 1.4
900792-huH4L2 (antibody, human IgG1, kappa, L234A L235A, V domains shown, Humanized) VH: QVQLVQSGAEVKKPGASVKVSCKASGYAFTNYLIEWVRQAPGQGLEWMGIINPESGDTYYAQKFQGRVTLTADKSTSTAYMELSSLRSEDSAVYYCAKESLTGSSYDYWGQGTTLTVSS VL: DIQMTQSPSSLSASVGDRVTITCRASENIYSNLVWYQQKPGKAPQLLVYGARNLQSGVPSRFSGSGSGTQFSLTISSLQPEDFATYYCQHFYETPLTFGTGTKLEIKR | ~10 times better than Tezepelumab | 0.234 | 0.000174 | 743000 | 3.99 | 0.013 | 3.27e+06 | 8.6 | 3.3
900792-huH4L1 (antibody, human IgG1, kappa, L234A L235A, V domains shown, Humanized) VH: QVQLVQSGAEVKKPGASVKVSCKASGYAFTNYLIEWVRQAPGQGLEWMGIINPESGDTYYAQKFQGRVTLTADKSTSTAYMELSSLRSEDSAVYYCAKESLTGSSYDYWGQGTTLTVSS VL: DIQMTQSPSSLSASVGDRVTITCRASENIYSNLVWYQQKPGKAPQLLVYGARNLADGVPSRFSGSGSGTQFSLTISSLQPEDFATYYCQHFYETPLTFGTGTKLEIKR | ~10 times better than Tezepelumab | 0.117 | 8.15e-05 | 694000 | 4.17 | 0.00873 | 2.09e+06 | 9.6 | 4
900792-huH3L2 (antibody, human IgG1, kappa, L234A L235A, V domains shown, Humanized) VH: QVQLQQSGAEVKKPGASVKVSCKASGYAFTNYLIEWVRQAPGQGLEWMGVINPESGDTYYSQKFQGRVTMTADKSTSTAYMELSSLRSEDSAVYFCAKESLTGSSYDYWGQGTTLTVSS VL: DIQMTQSPSSLSASVGDRVTITCRASENIYSNLVWYQQKPGKAPQLLVYGARNLQSGVPSRFSGSGSGTQFSLTISSLQPEDFATYYCQHFYETPLTFGTGTKLEIKR | ~10 times better than Tezepelumab | 0.131 | 0.000108 | 822000 | 5.05 | 0.0327 | 6.47e+06 | 8.1 | 1.5
900792-huH1L2 (antibody, human IgG1, kappa, L234A L235A, V domains shown, Humanized) VH: QVQLQQSGAEVKKPGASVKVSCKASGYAFTNYLIEWVRQAPGQGLEWIGVINPESGDTYYSEKFQGRVTLTADKSTSTAYMELSSLRSEDSAVYFCAKESLTGSSYDYWGQGTTLTVSS VL: DIQMTQSPSSLSASVGDRVTITCRASENIYSNLVWYQQKPGKAPQLLVYGARNLQSGVPSRFSGSGSGTQFSLTISSLQPEDFATYYCQHFYETPLTFGTGTKLEIKR | ~10 times better than Tezepelumab | 0.176 | 0.000126 | 713000 | 8.23 | 0.00274 | 333000 | 6 | 2
900792-huH4L3 (antibody, human IgG1, kappa, L234A L235A, V domains shown, Humanized) VH: QVQLVQSGAEVKKPGASVKVSCKASGYAFTNYLIEWVRQAPGQGLEWMGIINPESGDTYYAQKFQGRVTLTADKSTSTAYMELSSLRSEDSAVYYCAKESLTGSSYDYWGQGTTLTVSS VL: DIQMTQSPSSLSASVGDRVTITCRASENIYSNLVWYQQKPGKAPQLLIYGARNLQSGVPSRFSGSGSGTQFTLTISSLQPEDFATYYCQHFYETPLTFGTGTKLEIKR | ~10 times better than Tezepelumab | 0.157 | 0.000121 | 771000 | 4.18 | 0.00989 | 2.37e+06 | 6.6 | 2.4

Source: patent EP4814011A1 (Shanghai Huaota Biopharmaceutical Co., Ltd., dated 2026)
